Test results published in patent US20200165344A1 (DRAGONFLY THERAPEUTICS, published 2020).
Substitutions are numbered along the chain they refer to.

T1: recombinant cynomolgus NKG2D-Fc (cynomolgus; human, UniProt P61252 73-216)
T1 construct: extracellular domain; also called cynomolgus NKG2D-Fc fusion protein; not shown: human IgG1 Fc domain
T1 sequence (looked up): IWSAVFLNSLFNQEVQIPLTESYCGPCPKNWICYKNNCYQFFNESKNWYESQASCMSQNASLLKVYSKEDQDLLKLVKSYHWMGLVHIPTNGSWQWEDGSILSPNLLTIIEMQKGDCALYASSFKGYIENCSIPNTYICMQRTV

T2: recombinant human NKG2D-Fc (human, UniProt P26718 73-216)
T2 construct: extracellular domain; also called human NKG2D-Fc fusion protein; NKG2D-Fc-biotin; not shown: human IgG1 Fc domain
T2 sequence (looked up): T1 sequence (looked up) with N43D, I133T

T3: recombinant mouse NKG2D-Fc (mouse; human, UniProt O54709 90-232)
T3 construct: extracellular domain; also called mouse NKG2D-Fc fusion protein; Mouse NKG2D-Fc-biotin; not shown: human IgG1 Fc domain
T3 sequence (looked up): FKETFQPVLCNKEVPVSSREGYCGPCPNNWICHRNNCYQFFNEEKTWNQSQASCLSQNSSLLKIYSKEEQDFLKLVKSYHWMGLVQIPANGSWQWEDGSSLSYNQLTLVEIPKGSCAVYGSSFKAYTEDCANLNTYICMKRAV

B1: A49-TriNKET-FLT3-IMCEB10 (bispecific antibody, V domains shown)
VH 1: EVQLVESGGGLVKPGGSLRLSCAASGFTFSSYSMNWVRQAPGKGLEWVSSISSSSSYIYYADSVKGRFTISRDNAKNSLYLQMNSLRAEDTAVYYCARGAPMGAAAGWFDPWGQGTLVTVSS
VL 1: DIQMTQSPSSVSASVGDRVTITCRASQGISSWLAWYQQKPGKAPKLLIYAASSLQSGVPSRFSGSGSGTDFTLTISSLQPEDFATYYCQQGVSFPRTFGGGTKVEIK
VH 2: EVQLVQSGAEVKKPGASVKVSCKASGYTFTSYYMHWVRQAPGQGLEWMGIINPSGGSTSYAQKFQGRVTMTRDTSTSTVYMELSSLRSEDTAVYYCARGVGAHDAFDIWGQGTTVTVSSA
VL 2: DVVMTQSPLSLPVTPGEPASISCRSSQSLLHSNGNNYLDWYLQKPGQSPQLLIYLGSNRASGVPDRFSGSGSDTDFTLQISRVEAEDVGVYYCMQGTHPAISFGQGTRLEIKR
notes: also called A49-TriNKET-IMCEB10
B2: A49-TriNKET-FLT3-4G8 (bispecific antibody, V domains shown)
VH 1: B1 VH 1
VL 1: B1 VL 1
VH 2: QVQLQQPGAELVKPGASLKLSCKSSGYTFTSYWMHWVRQRPGHGLEWIGEIDPSDSYKDYNQKFKDKATLTVDRSSNTAYMHLSSLTSDDSAVYYCARAITTTPFDFWGQGTTLTVSS
VL 2: DIVLTQSPATLSVTPGDSVSLSCRASQSISNNLHWYQQKSHESPRLLIKYASQSISGIPSRFSGSGSGTDFTLSINSVETEDFGVYFCQQSNTWPYTFGGGTKLEIKR
notes: also called A49-TriNKET-4G8
B3: C26-TriNKET-FLT3-4G8 (bispecific antibody, V domains shown)
VH 1: QVQLQQWGAGLLKPSETLSLTCAVYGGSFSGYYWSWIRQPPGKGLEWIGEIDHSGSTNYNPSLKSRVTISVDTSKNQFSLKLSSVTAADTAVYYCARARGPWSFDPWGQGTLVTVSS
VL 1: B1 VL 1 with S10T, V11L, G28S, A50K, Q55E, D70E, E81D, G91Y, V92G, R96I
VH 2: B2 VH 2
VL 2: B2 VL 2
notes: also called C26-TriNKET-4G8
B4: ADI-27705 (antibody, V domains shown)
VH: B3 VH 1
VL: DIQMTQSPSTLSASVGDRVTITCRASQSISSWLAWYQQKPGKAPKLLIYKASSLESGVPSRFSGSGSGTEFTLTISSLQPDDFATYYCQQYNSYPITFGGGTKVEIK
B5: ADI-28226 (antibody, V domains shown)
VH: B3 VH 1
VL: B1 VL 1 with S10T, V11L, G28S, A50K, Q55E, D70E, E81D, G91Y, V92G, R96I
notes: also called C26
B6: ADI-29429 (antibody, V domains shown)
VH: B3 VH 1
VL: DIQMTQSPSTLSASVGDRVTITCRASQSIGSWLAWYQQKPGKAPKLLIYKASSLESGVPSRFSGSGSGTEFTLTISSLQPDDFATYYCQQYELYSYTFGGGTKVEIK
B7: ADI-29403 (antibody, V domains shown)
VH: B3 VH 1
VL: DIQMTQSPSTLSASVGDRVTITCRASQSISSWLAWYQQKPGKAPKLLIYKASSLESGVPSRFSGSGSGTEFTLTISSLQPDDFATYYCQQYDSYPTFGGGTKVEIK
B8: ADI-27740 (antibody, V domains shown)
VH: B3 VH 1
VL: DIQMTQSPSTLSASVGDRVTITCRASQSIGSWLAWYQQKPGKAPKLLIYKASSLESGVPSRFSGSGSGTEFTLTISSLQPDDFATYYCQQYHSFYTFGGGTKVEIK
notes: also called A40
B9: ADI-27741 (antibody, V domains shown)
VH: B3 VH 1
VL: B8 VL with Y91S, H92N, F94Y
B10: ADI-27743 (antibody, V domains shown)
VH: B3 VH 1
VL: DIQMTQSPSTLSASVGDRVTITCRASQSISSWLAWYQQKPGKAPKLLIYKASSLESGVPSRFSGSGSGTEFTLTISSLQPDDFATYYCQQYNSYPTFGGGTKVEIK
B11: ADI-29399 (antibody, V domains shown)
VH: B3 VH 1
VL: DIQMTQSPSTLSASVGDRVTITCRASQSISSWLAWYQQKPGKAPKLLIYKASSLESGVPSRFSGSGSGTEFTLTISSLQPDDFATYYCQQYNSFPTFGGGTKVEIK
B12: ADI-29401 (antibody, V domains shown)
VH: B3 VH 1
VL: B8 VL with H92D, S93I, F94Y, Y95P
B13: ADI-29404 (antibody, V domains shown)
VH: B3 VH 1
VL: B8 VL with G30S, Q89E, H92D, F94Y, Y95P
notes: also called F04
B14: ADI-29405 (antibody, V domains shown)
VH: B3 VH 1
VL: B8 VL with G30S, H92G, Y95P
B15: ADI-29407 (antibody, V domains shown)
VH: B3 VH 1
VL: B8 VL with G30S, H92Q, Y95P
B16: ADI-29419 (antibody, V domains shown)
VH: B3 VH 1
VL: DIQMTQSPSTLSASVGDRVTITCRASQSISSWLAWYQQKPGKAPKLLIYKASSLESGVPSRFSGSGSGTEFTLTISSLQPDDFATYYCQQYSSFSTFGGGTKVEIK
B17: ADI-29421 (antibody, V domains shown)
VH: B3 VH 1
VL: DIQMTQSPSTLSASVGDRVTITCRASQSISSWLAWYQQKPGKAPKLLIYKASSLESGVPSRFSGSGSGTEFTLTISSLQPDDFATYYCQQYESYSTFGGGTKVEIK
B18: ADI-29424 (antibody, V domains shown)
VH: B3 VH 1
VL: B8 VL with G30S, H92D, Y95I
B19: ADI-29425 (antibody, V domains shown)
VH: B3 VH 1
VL: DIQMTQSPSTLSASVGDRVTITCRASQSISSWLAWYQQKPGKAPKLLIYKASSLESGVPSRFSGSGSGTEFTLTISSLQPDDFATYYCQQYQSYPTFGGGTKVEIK
B20: ADI-29426 (antibody, V domains shown)
VH: B3 VH 1
VL: B8 VL with Y95P
B21: ADI-29447 (antibody, V domains shown)
VH: B3 VH 1
VL: B8 VL with G30S, H92D, S93T, Y95I
notes: also called F47
B22: ADI-27727 (antibody, V domains shown)
VH: QVQLVQSGAEVKKPGSSVKVSCKASGGTFSSYAISWVRQAPGQGLEWMGGIIPIFGTANYAQKFQGRVTITADESTSTAYMELSSLRSEDTAVYYCARGDSSIRHAYYYYGMDVWGQGTTVTVSS
VL: not shown
B23: ADI-27749 (antibody, V domains shown)
VH: B1 VH 1
VL: B1 VL 1
notes: also called A49
B24: ADI-29378 (antibody, V domains shown)
VH: QVQLVQSGAEVKKPGASVKVSCKASGYTFTSYYMHWVRQAPGQGLEWMGIINPSGGSTSYAQKFQGRVTMTRDTSTSTVYMELSSLRSEDTAVYYCAREGAGFAYGMDYYYMDVWGKGTTVTVSS
VL: EIVLTQSPATLSLSPGERATLSCRASQSVSSYLAWYQQKPGQAPRLLIYDASNRATGIPARFSGSGSGTDFTLTISSLEPEDFAVYYCQQSDNWPFTFGGGTKVEIK
notes: also called E78

What follows are binders tested against T4, FLT3 expressed on human AML cell lines Molm-13 and EOL-1 (human, UniProt P36888 27-993) (assay: flow cytometry on Molm-13 and EOL-1 cells).
T4 construct: the FLT3 in the assay is that carried by the cell lines themselves; also called FMS-like tyrosine kinase-3
Protocol: Human AML cell lines (Molm-13 and EOL-1) expressing FLT3 were used to assay the binding of FLT3-targeting TriNKETs to the tumor-associated antigen. TriNKETs were incubated with the cells, and the binding was detected using fluorophore-conjugated anti-human IgG secondary antibodies. Cells were analyzed by flow cytometry and mean fluorescence intensity (MFI) was normalized to secondary antibody controls to obtain fold over background (FOB) values.

Binding result, binds:
B1
B2
B3

The binders below were run against T1, recombinant cynomolgus NKG2D-Fc (assay: ELISA, NKG2D-Fc coated).

Binding result, binds:
B4
B5
B6
B7
B8
B9
B10
B11
B12
B13
B14
B15
B16
B17
B18
B19
B20
B21
B22
B23
B24

Each binder was assayed against T2, recombinant human NKG2D-Fc (assay: ELISA, NKG2D-Fc coated).

Binding result, binds:
B4
B5
B6
B7
B8
B9
B10
B11
B12
B13
B14
B15
B16
B17
B18
B19
B20
B21
B22
B23
B24

Each binder was assayed against T3, recombinant mouse NKG2D-Fc (assay: ELISA, NKG2D-Fc coated).

Binding result, binds:
B4
B5
B6
B7
B8
B9
B10
B11
B12
B13
B14
B15
B16
B17
B18
B19
B20
B21
B22
B23
B24
